# Measurements: patent US20050227220A1, “Compositions and Methods for Evaluating and Designing Nuclear Receptor Ligands that Modulate Co-Regulator Affinity” (priority 2002, published 2005)
# No end group written: not given here. *: point of attachment. Biotin = O=C1N[C@H]2[C@H](CS[C@H]2CCCCC(=O)*)N1
# B1: GAL4-NcoR (2012-2103) (other)
# chain: MKLLSSIEQACDICRLKKLKCSKEKPKCAKCLKNNWECRYSPKTKRSPLTRAHLTEVESRLERLEQLFLLIFPREDLDMILKMDSLQDIKALLTGLFVQDNVNKDAVTDRLASVETDMPLTLRQHRISATSSSEESSNKGQRQLTVSGPLHHYRPQQESPSPQQQLPPSSQAEGMGQVPRTHRLITLADHICQIITQDFARNQVSSQTPQQPPTSTFQNSPSALVSTPVRTKTSNRYSP
# notes: range 1-147;range 2012-2103; also called NCoR fragment (2012-2103) that contained NCoR ID-N
# Columns and labels:
# PPARδ LBD [1] = biological target: T1, PPARδ LBD (Homo sapiens, UniProt Q03181); assay: Fluorescence polarization assay for ligand modulation of nuclear receptor/cofactor peptide affinities; type: biochemical; details: result in words
# T1 construct: made in house; host or cells: bacterial BL21-DE3, vector pRSETA
# T1 sequence (Q03181 139-441): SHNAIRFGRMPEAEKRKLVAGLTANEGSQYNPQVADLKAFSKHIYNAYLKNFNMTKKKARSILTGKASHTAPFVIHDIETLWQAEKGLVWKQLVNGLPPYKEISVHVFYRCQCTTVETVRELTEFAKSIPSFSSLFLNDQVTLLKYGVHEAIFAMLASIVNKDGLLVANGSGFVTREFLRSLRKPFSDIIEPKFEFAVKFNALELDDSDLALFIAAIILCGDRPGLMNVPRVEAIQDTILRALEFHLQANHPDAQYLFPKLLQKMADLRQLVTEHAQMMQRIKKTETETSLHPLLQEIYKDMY
# Protocol: Such tests were performed quantitatively by measuring the effect of an excess of ligand on the binding affinity of the co-repressor peptide.
# All experiments were conducted with buffer containing 10 mM HEPES, pH 7.4, containing 0.15 M NaCl, 3 mM EDTA, 0.005% polysorbate-20 and 5 mM DTT. Varied concentrations of receptor were incubated at room temperature with 10 nM of fluorescein-labeled NCOR ID-C or SMRT ID-C peptides. […] Binding isotherms were constructed and apparent KD values were determined by non-linear least squares fit of the data to an equation for a simple 1:1 interaction. […] Complex formation was monitored by fluorescence polarization as described in methods. […] All assays were performed in duplicate and affinities are the average of at least two independent experiments.
# PPARδ LBD / RXRα LBD = biological target: T2, PPARδ LBD / RXRα LBD (Homo sapiens, UniProt Q03181); assay: FRET assay: ligand effect on RXRα LBD binding to PPAR LBD; details: 10 nM PPAR LBD, 4 concentrations of RXR
# T2 sequence (Q03181 139-441): T1 sequence (Q03181 139-441)
# T2 sequence (P19793 225-462 partner limits assumed): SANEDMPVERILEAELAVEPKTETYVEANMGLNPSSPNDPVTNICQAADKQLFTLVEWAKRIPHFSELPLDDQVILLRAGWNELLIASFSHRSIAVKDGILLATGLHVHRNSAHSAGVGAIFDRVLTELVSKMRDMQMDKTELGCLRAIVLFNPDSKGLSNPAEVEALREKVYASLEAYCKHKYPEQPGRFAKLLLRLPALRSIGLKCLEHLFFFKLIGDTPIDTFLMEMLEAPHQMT
# PPARα LBD = biological target: T3, PPARα LBD (Homo sapiens, UniProt Q07869); assay: FRET assay: ligand effect on CBP fragment / NCoR ID-C binding to PPAR LBD; type: biochemical; details: 10 nM PPAR LBD, CBP (57-454)
# T3 construct: made in house; host or cells: bacterial BL21-DE3, vector pRSETA
# T3 sequence (Q07869 192-468): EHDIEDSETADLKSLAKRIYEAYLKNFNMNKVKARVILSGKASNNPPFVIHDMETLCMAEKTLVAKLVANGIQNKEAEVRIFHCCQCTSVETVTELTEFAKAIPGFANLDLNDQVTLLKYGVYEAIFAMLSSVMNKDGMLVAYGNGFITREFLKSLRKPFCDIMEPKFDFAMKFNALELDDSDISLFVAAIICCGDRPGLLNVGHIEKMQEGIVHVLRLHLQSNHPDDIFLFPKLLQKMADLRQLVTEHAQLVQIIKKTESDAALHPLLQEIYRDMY
# From the text: (§1) The experimentally determined α value is the ratio of cofactor affinities in the presence and absence of a saturating concentration of ligand. This analysis permits a direct comparison of the effects of compounds, independent of cofactor concentration and differences in coregulator affinity for the individual receptors. […] 98(9): p.
# (§2) The effects of the coregulator environment on the apparent affinities and selectivities of various ligands were than examined. Experimentally determined pKs and the α values derived from the FRET assay were used to calculate the apparent affinity of the ligand for the receptor/cofactor complex (i.e. K/α).
# (§3) FIG. 5 illustrates the effect of ligands on coactivator and corepressor binding to PPAR subtypes determined by FRET.
# PPARδ LBD [2] = biological target: T1, PPARδ LBD; assay: as above; type: biochemical
# From the text: as §1, §2, §3
# full length human PPARα = biological target: T4, full length human PPARα (Homo sapiens, UniProt Q07869); assay: Mammalian two-hybrid assay (CV-1 cells); type: cell-based; details: VP16-PPARα, GAL4-NCoR (2239-2300), result in words
# T4 construct: expressed in transfected cells; host or cells: CV-1 cells, vector pVP16 (Clonetech)
# T4 sequence (Q07869 1-468): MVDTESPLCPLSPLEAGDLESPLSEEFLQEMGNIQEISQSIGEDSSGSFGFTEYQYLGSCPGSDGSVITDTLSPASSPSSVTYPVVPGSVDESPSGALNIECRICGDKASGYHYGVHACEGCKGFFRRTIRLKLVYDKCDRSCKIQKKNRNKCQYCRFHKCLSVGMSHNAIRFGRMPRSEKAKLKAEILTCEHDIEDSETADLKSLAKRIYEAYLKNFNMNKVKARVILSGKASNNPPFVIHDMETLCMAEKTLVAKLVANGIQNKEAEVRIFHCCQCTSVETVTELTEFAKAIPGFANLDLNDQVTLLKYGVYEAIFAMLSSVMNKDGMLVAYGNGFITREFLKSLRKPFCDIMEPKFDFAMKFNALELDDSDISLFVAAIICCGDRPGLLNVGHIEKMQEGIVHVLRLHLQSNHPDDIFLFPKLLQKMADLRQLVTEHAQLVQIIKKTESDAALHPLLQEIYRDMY
# From the text: (§4) Mammalian two-hybrid assays were used to examine the ability of the tyrosine-based class of PPAR ligands to promote association or dissociation of the co-activator CBP and the corepressor NCoR in the context of a cellular environment. The assays for the three PPAR subtypes used full length human PPARα, PPARγ2 or PPARδ fused to the activation domain of VP16 and previously identified interaction domains of CBP and NCoR fused to the DNA binding domain of GAL4.
# (§5) Expression plasmids for the VP16-human PPAR constructs were prepared by inserting amplified cDNAs encoding full length PPARα, PPARγ2 and PPARδ fused to amino acids 410-490 of the VP16 viral activation domain, into the expression vector pVP16 (Clonetech). […] The reporter plasmid was (UAS)5-tk-SPAP, and the internal control plasmid for all transfections was β-galactosidase expression vector (pCH110, Amersham).
# (§6) CV-1 cells were maintained in culture in DME high glucose medium supplemented with 10% FBS and 2 mM glutamine in a humidified incubator (5% CO2 in air) at 37° C. Cells were harvested 72 hours prior to experimental use and placed in phenol red free D-MEM/F-12 medium with 15 mM HEPES supplemented with 10% charcoal/dextran-treated FBS (HyClone, Logan, Utah). The cells were harvested and seeded at 2.0×10^4 cell per well in a 96-well plate the day prior to transfection. Cells were transfected for 16 hr using Lipofectamine (Life Technologies, Inc., Rockville, Md.) essentially according to the manufacturer's instructions. The total amount of DNA transfected into each well was 80 ng. Transfection mixtures contained 8 ng VP16-PPAR plasmid, 8 ng SPAP reporter, 25 ng of pCH110(β-galactosidase) control plasmid, 35 ng of pBluescript II KS+ (Clonetech) and 4 ng of either coactivator or corepressor plasmid. Transfection quantities for full length PPAR and cofactor plasmids were optimized to generate a signal that was half of the maximal activation. These conditions would allow for dissociation or association to be experimentally determined for each ligand evaluated. Stock solutions of drugs were prepated in DMSO and dilutions were made in phenol red-free D-MEM/F-12 with 15 mM HEPES supplemented with 10% charcoal stripped, delipidated, heat inactivated (62° C. for 35 min) bovine calf serum (Sigma, St. Louis, Mo.) such that the final concentration of DMSO was 0.1%. Transfection mixtures were aspirated and 100 μl, of medium containing drug was added to each well.
# full length human PPARδ = biological target: T5, full length human PPARδ (Homo sapiens, UniProt Q03181); assay: Mammalian two-hybrid assay (CV-1 cells); type: cell-based; details: VP16-PPARδ, GAL4-NCoR (2239-2300), result in words
# T5 construct: expressed in transfected cells; host or cells: CV-1 cells, vector pVP16 (Clonetech)
# T5 sequence (Q03181 whole entry, the tested form may be a part): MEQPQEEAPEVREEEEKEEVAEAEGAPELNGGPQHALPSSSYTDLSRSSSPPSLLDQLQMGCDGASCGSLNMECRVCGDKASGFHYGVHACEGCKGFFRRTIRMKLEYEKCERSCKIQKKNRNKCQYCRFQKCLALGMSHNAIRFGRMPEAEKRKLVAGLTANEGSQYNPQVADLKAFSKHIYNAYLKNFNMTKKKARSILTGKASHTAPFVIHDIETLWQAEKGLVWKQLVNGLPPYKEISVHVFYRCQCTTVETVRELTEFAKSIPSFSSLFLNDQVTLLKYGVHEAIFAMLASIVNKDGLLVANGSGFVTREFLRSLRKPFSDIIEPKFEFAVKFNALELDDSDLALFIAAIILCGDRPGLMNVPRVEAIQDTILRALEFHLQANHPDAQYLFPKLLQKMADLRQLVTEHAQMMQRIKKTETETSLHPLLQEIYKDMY
# From the text: as §4, §5, §6
# [3] = biological target: T6, human PPARγ ligand binding domain (amino acids 206-477) (human, UniProt P37231-2 206-477); assay: fluorescence polarization, apparent affinity, with GW1929
# T6 construct: range 206-477; placed at the N-terminus here; Biotinylated for FRET; also called PPARγ LBD
# T6 sequence: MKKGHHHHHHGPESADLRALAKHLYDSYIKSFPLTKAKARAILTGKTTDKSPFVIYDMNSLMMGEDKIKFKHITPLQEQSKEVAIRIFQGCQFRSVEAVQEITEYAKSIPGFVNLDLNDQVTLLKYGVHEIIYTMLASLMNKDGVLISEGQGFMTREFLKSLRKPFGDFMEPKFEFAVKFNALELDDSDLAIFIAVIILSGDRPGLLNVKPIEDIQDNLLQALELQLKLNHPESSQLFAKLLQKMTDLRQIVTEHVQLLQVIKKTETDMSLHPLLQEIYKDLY
# [4] = biological target: T7, human PPARδ ligand binding domain (amino acids 139-441) (human, UniProt Q03181 139-441, Biotinylated (site not stated) in the FRET assays; unlabelled in fluorescence polarization and SPR.); assay: as above
# T7 construct: placed at the N-terminus here; Biotinylated for FRET; also called PPARδ LBD
# T7 sequence: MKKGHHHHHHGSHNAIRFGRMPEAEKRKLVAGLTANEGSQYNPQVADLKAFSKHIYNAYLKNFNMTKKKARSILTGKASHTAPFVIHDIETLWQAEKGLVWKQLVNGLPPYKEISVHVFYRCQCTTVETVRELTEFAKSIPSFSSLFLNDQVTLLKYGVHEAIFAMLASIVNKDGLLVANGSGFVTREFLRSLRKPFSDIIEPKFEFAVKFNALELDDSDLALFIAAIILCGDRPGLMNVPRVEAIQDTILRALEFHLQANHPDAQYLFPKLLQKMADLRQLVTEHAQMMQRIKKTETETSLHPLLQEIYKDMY
# [5] = biological target: T6, human PPARγ ligand binding domain …; assay: fluorescence polarization, apparent affinity, no ligand
# [6] = biological target: T7, human PPARδ ligand binding domain …; assay: as above
# [7] = biological target: T6, human PPARγ ligand binding domain …; assay: fluorescence polarization, apparent affinity, with rosiglitazone
# [8] = biological target: T7, human PPARδ ligand binding domain …; assay: as above
# [9] = biological target: T8, VP16-human PPARγ2 (full length) (human, UniProt P06492 410-490; P37231 1-505); assay: mammalian two-hybrid in CV-1 cells
# T8 construct: also called VP16 full length PPARγ
# [10] = biological target: T9, VP16-human PPARα (full length) (human, UniProt P06492 410-490; Q07869 1-468); assay: mammalian two-hybrid in CV-1 cells
# T9 construct: also called VP16 full length PPARα
# [11] = biological target: T10, VP16-human PPARδ (full length) (human, UniProt P06492 410-490; Q03181 1-441); assay: mammalian two-hybrid in CV-1 cells
# T10 construct: also called VP16 full length PPARδ
molecule,measurement,setting,value
CN(CCOc1ccc(C[C@H](Nc2ccccc2C(=O)c2ccccc2)C(=O)O)cc1)c1ccccn1 [GW1929],effect on PPARδ interaction with the coactivator peptide (TRAP220),PPARδ LBD [1],little or no effect
same,promotion of association of PPARδ with RXR,PPARδ LBD / RXRα LBD,most effective
same,effect on apparent affinity of PPARα for the co-activator fragment from CBP,PPARα LBD,increased the apparent affinity
same,effect on apparent affinity of PPARδ for the co-activator fragment from CBP,"PPARδ LBD [2]; 10 nM PPAR LBD, CBP (57-454)",increased the apparent affinity
same,effect on affinity of PPARδ for the co-repressor peptide,"PPARδ LBD [2]; 10 nM PPAR LBD, NCoR ID-C",greatest effect
same,log α (NCoR association with PPARδ),PPARδ LBD [2]; α = ratio of cofactor affinities in presence and absence of saturating ligand,0.52
same,effect on PPARα interaction with NCoR,full length human PPARα,neither GW1929 nor GW7845 were able to promote association with NCoR
same,effect on PPARδ interaction with NCoR,full length human PPARδ,slightly promote association
"Biotin-GHGEDFSKVSQNPILTSLLQITGNG (not fully specified; printed as biotin-GHGEDFSKVSQNPILTSLLQITGNG, also called TRAP220 575-599) [TRAP220 peptide (amino acids 575-599)]",Kd,[3],790 nM
same,Kd,[4],3400 nM
same,Kd,[5],3900 nM
same,Kd,[6],2300 nM
same,Kd,[7],1500 nM
same,Kd,[8],1800 nM
B1,binding result,[9],no binding
same,binding result,[10],no binding
same,binding result,[11],no binding
